Source: PMC3383732, “Impact of Large Aggregated Uricases and PEG Diol on Accelerated Blood Clearance of PEGylated Canine Uricase” (PLoS ONE, 2012)
Several values for one entry are separate records, joined by “and”; a condition that tells them apart may be missing. Equal values may be shown once.

Target: the molecule itself
Assay: SEC; SE-HPLC on Superdex 200 10/300 GL, 0.1 M Na2CO3 pH 10.3, 0.4 ml/min, detection at 280 nm; purified rCU after xanthine affinity chromatography and Source 15Q fractions

B1: recombinant canine uricase (enzyme, UniProt Q5FZI9 1-304, looked up)
chain: MAHYHNDYKKNDEVEFVRTGYGKDMVKVLHIQRDGKYHSIKEVATSVQLTLSSKKDYVYGDNSDIIPTDTIKNTVHVLAKFKGIKSIETFAMNICEHFLSSFNHVIRAQVYVEEVPWKRFEKNGVKHVHAFIHNPTGTHFCEVEQMRSGPPVIHSGIKDLKVLKTTQSGFEGFIKDQFTTLPEVKDRCFATKVYCKWRYHQGRDVDFEATWDTVRDIVLEKFAGPYDKGEYSPSVQKTLYDIQVHSLSRVPEMEDMEISLPNIHYFNIDMSKMGLINKEEVLLPLDNPYGRITGTAKRKLASKL
notes: Active form is a homo-tetramer; octamers and larger aggregates of the same chain were also seen and separated on Source 15Q; No tag is mentioned; Unmodified (not PEGylated) protein in the SE-HPLC analysis; also called rCU; wDU
With B1 the “stoichiometry N” value was 4 and 8.
